US20210122824A1

How the values were obtained:
Test in all cases: flow cytometry, HEK293F cells transiently expressing the target, 100 nM antibody, PE anti-human Fc; Mean (PE-A against FITC-A, GFP surrogate)
[1] = biological target: human CTLA4 expressed on HEK293F cells (human) (UniProt P16410)
[2] = biological target: mouse PD-L1 expressed on HEK293F cells (mouse) (UniProt Q9EP73)
[3] = biological target: human TIM3 expressed on HEK293F cells (human) (UniProt Q8TDQ0)
[4] = biological target: rhesus PD-L1 expressed on HEK293F cells (rhesus) (UniProt F6VEW6)
[5] = biological target: human LAG3 expressed on HEK293F cells (human) (UniProt P18627)
[6] = biological target: human PD1 expressed on HEK293F cells (human) (UniProt Q15116)
[7] = biological target: human B7-H3 expressed on HEK293F cells (human) (UniProt Q5ZPR3)
[8] = biological target: human PD-L1 expressed on cell surface (human) (UniProt Q9NZQ7)
human PD-L1 expressed on cell surface (human), sequence (Q9NZQ7 19-290): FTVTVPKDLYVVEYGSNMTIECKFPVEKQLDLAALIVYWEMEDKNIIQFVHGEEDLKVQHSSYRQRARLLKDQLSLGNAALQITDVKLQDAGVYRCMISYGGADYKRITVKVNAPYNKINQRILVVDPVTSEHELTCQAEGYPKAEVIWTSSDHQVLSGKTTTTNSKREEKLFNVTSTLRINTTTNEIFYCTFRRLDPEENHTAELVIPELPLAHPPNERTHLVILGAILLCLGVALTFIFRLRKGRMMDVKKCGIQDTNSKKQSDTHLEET

human B7-H3 expressed on HEK293F cells (human), sequence (Q5ZPR3 29-534): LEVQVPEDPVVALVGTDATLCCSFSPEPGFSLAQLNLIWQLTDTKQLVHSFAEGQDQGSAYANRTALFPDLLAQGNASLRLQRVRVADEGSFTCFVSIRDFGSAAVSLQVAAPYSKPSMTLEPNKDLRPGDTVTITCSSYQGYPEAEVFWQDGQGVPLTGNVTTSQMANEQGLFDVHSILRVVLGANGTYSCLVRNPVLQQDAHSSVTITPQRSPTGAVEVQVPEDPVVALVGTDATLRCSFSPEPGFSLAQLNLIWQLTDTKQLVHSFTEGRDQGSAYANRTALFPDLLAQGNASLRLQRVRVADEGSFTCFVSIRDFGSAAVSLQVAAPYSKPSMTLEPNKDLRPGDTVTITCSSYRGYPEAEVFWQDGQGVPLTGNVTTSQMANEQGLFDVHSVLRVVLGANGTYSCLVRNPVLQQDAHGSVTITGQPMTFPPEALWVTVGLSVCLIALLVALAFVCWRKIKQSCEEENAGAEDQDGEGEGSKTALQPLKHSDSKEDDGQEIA
human LAG3 expressed on HEK293F cells (human), sequence (P18627 23-525): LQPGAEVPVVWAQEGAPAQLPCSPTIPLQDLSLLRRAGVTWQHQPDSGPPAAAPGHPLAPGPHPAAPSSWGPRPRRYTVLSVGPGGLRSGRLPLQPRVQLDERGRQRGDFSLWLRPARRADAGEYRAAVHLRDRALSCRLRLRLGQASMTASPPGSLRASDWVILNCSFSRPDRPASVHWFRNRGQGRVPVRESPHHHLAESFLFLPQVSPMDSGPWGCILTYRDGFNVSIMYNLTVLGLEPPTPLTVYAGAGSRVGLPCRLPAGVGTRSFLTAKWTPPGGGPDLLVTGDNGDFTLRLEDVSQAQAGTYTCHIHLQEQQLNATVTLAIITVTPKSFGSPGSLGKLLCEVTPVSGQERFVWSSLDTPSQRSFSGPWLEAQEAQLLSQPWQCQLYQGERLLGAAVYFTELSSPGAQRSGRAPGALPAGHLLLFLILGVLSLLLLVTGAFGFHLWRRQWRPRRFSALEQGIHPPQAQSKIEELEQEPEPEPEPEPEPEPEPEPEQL
human PD1 expressed on HEK293F cells (human), sequence (Q15116 25-288): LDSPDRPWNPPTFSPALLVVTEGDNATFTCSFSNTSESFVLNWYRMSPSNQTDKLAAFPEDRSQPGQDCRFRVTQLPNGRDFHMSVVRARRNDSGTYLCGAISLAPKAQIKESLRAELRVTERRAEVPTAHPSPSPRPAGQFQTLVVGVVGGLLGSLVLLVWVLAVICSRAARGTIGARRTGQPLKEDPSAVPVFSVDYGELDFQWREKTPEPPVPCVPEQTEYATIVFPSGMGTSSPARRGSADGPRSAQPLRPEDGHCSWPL
mouse PD-L1 expressed on HEK293F cells (mouse), sequence (Q9EP73 19-290): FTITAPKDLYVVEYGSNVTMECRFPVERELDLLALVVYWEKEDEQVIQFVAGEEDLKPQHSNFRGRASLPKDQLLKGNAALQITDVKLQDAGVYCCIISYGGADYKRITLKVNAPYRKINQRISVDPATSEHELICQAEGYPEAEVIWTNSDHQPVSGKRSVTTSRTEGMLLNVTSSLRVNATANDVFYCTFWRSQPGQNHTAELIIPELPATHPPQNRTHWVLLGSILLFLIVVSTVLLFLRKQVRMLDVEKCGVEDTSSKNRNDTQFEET
human CTLA4 expressed on HEK293F cells (human), sequence (P16410 36-223): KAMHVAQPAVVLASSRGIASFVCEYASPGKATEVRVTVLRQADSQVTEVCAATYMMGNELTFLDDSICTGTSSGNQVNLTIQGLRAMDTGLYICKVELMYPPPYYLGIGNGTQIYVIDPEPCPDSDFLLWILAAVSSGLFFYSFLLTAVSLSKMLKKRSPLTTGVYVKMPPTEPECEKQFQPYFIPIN

Mean [1]: 2480
Mean [2]: 3030
Mean [3]: 2280
Mean [4]: 2520
Mean [5]: 2440
Mean [6]: 3050
Mean [7]: 2690
Mean [8]: 2470
Substance: Isotype control (antibody)
